Experimental findings from patent publication US8062638 (Chugai, dated 2011) are described below.

To fix the notation:
B1: chimeric H chain / humanized L chain version b antibody (antibody, V domains shown)
VH: EVQLQQSGTNLVRPGALVKLSCKGSGFNIKDYYMHWVKQRPEQGLEWIGGNDPANGHSMYDPKFQGKASITADTSSNTAYLQLSSLTSEDTAVYFCARDSGYAMDYWGQGTSVTVSS
VL: DIQMTQSPSSLSASVGDRVTITCKASQDIKSFLSWYQQKPGKAPKLLIYYATSLADGVPSRFSGSGSGTDYTLTISSLQPEDFATYYCLQHGESPYTFGGGTKVEIK
notes: Expressed from N5KG4P (human IgG4-type); also called ch-b
B2: humanized H chain version a / humanized L chain version a antibody (antibody, V domains shown)
VH: QVQLLESGAVLARPGTSVKISCKASGFNIKDYYMHWVKQRPGQGLEWIGGNDPANGHSMYDPKFQGRAKLTAATSASIAYLEFSSLTNEDSAVYYCARDSGYAMDYWGQGTLVTVSS
VL: B1 VL with Y71F
notes: Expressed from N5KG4P (human IgG4-type)
B3: chimeric H chain / humanized L chain version c antibody (antibody, V domains shown)
VH: B1 VH
VL: B1 VL with F83I
notes: as for B2
B4: chimeric H chain / humanized L chain version a antibody (antibody, V domains shown)
VH: B1 VH
VL: B1 VL with Y71F
notes: as for B2
B5: chimeric H chain / humanized L chain version b1 antibody (antibody, V domains shown)
VH: B1 VH
VL: B1 VL with Y36F, A43S, L46T
notes: Expressed from N5KG4P (human IgG4-type); also called ch-b1
B6: chimeric H chain / humanized L chain version b2 antibody (antibody, V domains shown)
VH: B1 VH
VL: B1 VL with G41E, L46S
notes: Expressed from N5KG4P (human IgG4-type); also called ch-b2
B7: humanized H chain version b / chimeric L chain antibody (antibody, V domains shown)
VH: QVQLLESGAVLARPGTSVKISCKASGFNIKDYYMHWVKQRPGQGLEWIGGNDPANGHSMYDPKFQGRVTITADTSTNTAYMELSSLRSEDTAIYYCARDSGYAMDYWGQGTLVTVSS
VL: DIKMTQSPSSMYASLGERVTITCKASQDIKSFLSWYQQKPWKSPKTLIYYATSLADGVPSRFSGSGSGQDYSLTINNLESDDTATYYCLQHGESPYTFGGGTKLEIK
notes: as for B2
B8: humanized H chain version c / chimeric L chain antibody (antibody, V domains shown)
VH: QVQLLESGAVLARPGTSVKISCKASGFNIKDYYMHWVKQRPGQGLEWIGGNDPANGHSMYDPKFQGRVTMLVDTSKNQFSLRLSSVTAADTAVYYCARDSGYAMDYWGQGTLVTVSS
VL: B7 VL
notes: as for B2
B9: humanized H chain version a / chimeric L chain antibody (antibody, V domains shown)
VH: B2 VH
VL: B7 VL
notes: as for B2
B10: H chain humanized version b / L chain humanized version b antibody (antibody, V domains shown)
VH: B7 VH
VL: B1 VL
notes: also called b-b; humanized antibody version b-b
B11: humanized H chain version d / chimeric L chain antibody (antibody, V domains shown)
VH: B7 VH with T74E, N77S, T91S, I93V, Y95F
VL: B7 VL
notes: as for B2
B12: humanized H chain version j / humanized L chain version b antibody (antibody, V domains shown)
VH: B7 VH with I70F, T76A, S84R, E89A, I93V
VL: B1 VL
notes: Expressed from N5KG4P (human IgG4-type); also called j-b
B13: humanized H chain version b / humanized L chain version a antibody (antibody, V domains shown)
VH: B7 VH
VL: B1 VL with Y71F
notes: Expressed from N5KG4P (human IgG4-type); also called b-a
B14: humanized H chain version b / humanized L chain version b2 antibody (antibody, V domains shown)
VH: B7 VH
VL: B1 VL with G41E, L46S
notes: Expressed from N5KG4P (human IgG4-type); also called b-b2
B15: humanized H chain version d / humanized L chain version b antibody (antibody, V domains shown)
VH: B7 VH with T74E, N77S, T91S, I93V, Y95F
VL: B1 VL
notes: Expressed from N5KG4P (human IgG4-type); also called d-b
B16: humanized H chain version i / humanized L chain version b1 antibody (antibody, V domains shown)
VH: B7 VH with N77S, A79V, Y80F, I93V
VL: B1 VL with Y36F, A43S, L46T
notes: Expressed from N5KG4P (human IgG4-type); also called i-b1
B17: H chain humanized version i / L chain humanized version b2 antibody (antibody, V domains shown)
VH: B7 VH with N77S, A79V, Y80F, I93V
VL: B1 VL with G41E, L46S
notes: also called i-b2; humanized anti-human TF antibody version i-b2
B18: humanized H chain version e / chimeric L chain antibody (antibody, V domains shown)
VH: B7 VH with T69S, T74E, N77K, T78I, S84N, I93V, Y95F
VL: B7 VL
notes: as for B2
B19: humanized H chain version g / humanized L chain version b antibody (antibody, V domains shown)
VH: B7 VH with R67K, V68A, I70L, T74E, T76S, N77S, E82Q, T91S, I93V, Y95S
VL: B1 VL
notes: Expressed from N5KG4P (human IgG4-type); also called g-b
B20: humanized H chain version d3 / humanized L chain version b antibody (antibody, V domains shown)
VH: B7 VH with K38R, R40A, T74E, N77S, T91S, I93V, Y95F
VL: B1 VL
notes: Expressed from N5KG4P (human IgG4-type); also called d3-b
B21: humanized H chain version i / chimeric L chain antibody (antibody, V domains shown)
VH: B7 VH with N77S, A79V, Y80F, I93V
VL: B7 VL
notes: as for B2
B22: humanized H chain version b3 / humanized L chain version b antibody (antibody, V domains shown)
VH: B7 VH with K38R, R40A
VL: B1 VL
notes: Expressed from N5KG4P (human IgG4-type); also called b3-b
B23: humanized H chain version j / chimeric L chain antibody (antibody, V domains shown)
VH: B7 VH with I70F, T76A, S84R, E89A, I93V
VL: B7 VL
notes: as for B2
B24: humanized H chain version b / humanized L chain version c antibody (antibody, V domains shown)
VH: B7 VH
VL: B1 VL with F83I
notes: Human IgG4-type (N5KG4P series); also called b-c
B25: H chain humanized version i / L chain humanized version b antibody (antibody, V domains shown)
VH: B7 VH with N77S, A79V, Y80F, I93V
VL: B1 VL
notes: also called humanized antibody version i-b
B26: chimeric ATR-5 antibody (H chain chimeric/L chain chimeric) (antibody, V domains shown)
VH: B1 VH
VL: B7 VL
notes: Mouse ATR-5 V regions on human C regions; Both IgG1-type (N5KG1(V)) and IgG4-type (N5KG4P) vectors were made; also called ch-ch; chimeric antibody

Positions count from the first letter of the chain named.

One experiment deals with T1, human tissue factor (TF) on cells (human, UniProt P13726 33-295).
T1 construct: also called human TF; the antigen
Description: cell ELISA on fixed J82 cells expressing TF. On the technique in general: In an ELISA, binding on a coated surface is turned into a signal by an enzyme label.
With B1, the binding result was “binds”.

Take B2: the binding result is reported as “binds”.

B3: the binding result is “binds”.

For the molecule B4, the binding result is given as “binds”.

Turning to B5, the binding result is listed as “binds”.

For the molecule B6, the binding result was “binds”.

For B7, the binding result was “binds”.

Regarding B8, the binding result is “binds”.

B9: the binding result is listed as “binds”.

As to B10, the binding result is recorded as “binds”.

For B11, the binding result is given as “binds”.

As to B12, the binding result is “binds”.

Turning to B13, the binding result is given as “binds”.

Turning to B14, the binding result is on record as “binds”.

For B15, the binding result is on record as “binds”.

B16: the binding result was “binds”.

Consider B17, for which the binding result is given as “binds”.

As for B18, the binding result is given as “binds”.

On to B19, for which the binding result is on record as “binds”.

In the case of B20, the binding result is reported as “binds”.

Consider B21, for which the binding result is listed as “binds”.

As for B22, the binding result was “binds”.

Consider B23, for which the binding result is given as “binds”.

Consider B24, for which the binding result was “binds”.

For the molecule B25, the binding result is on record as “binds”.

The next experiment has as its target T1, human tissue factor (TF) on cells. In words: cell ELISA on fixed J82 cells expressing TF; chimeric antibody is the reference.
B26: the binding result is listed as “binds”.
